The text below walks through data of publication PMC10606890, “Studying the Association of TKS4 and CD2AP Scaffold Proteins and Their Implications in the Partial Epithelial–Mesenchymal Transition (EMT) Process” (International Journal of Molecular Sciences, 2023).

This assay has as its target T1, Myc-DDK-tagged human CD2-associated protein (human, UniProt Q9Y5K6 1-639).
T1 construct: human CD2-associated protein (CD2AP), full-length protein; also called Myc-tagged CD2AP; Myc-CD2AP recombinant protein; source: bought: Origene Technologies (RC210191), recombinant protein
The assay can be described thus: peptide or protein array; PepStar microarray of 225 TKS4 15-mers (11 overlapping residues) on a glass slide, three subarrays; recombinant Myc-CD2AP incubated 1 h at 30 °C in SmartBlock solution, TBS washes, detected with Alexa Fluor 488 anti-Myc-tag antibody; threshold 10,000 U. To be noted: both partners purified.

T1 sequence (Q9Y5K6 whole entry): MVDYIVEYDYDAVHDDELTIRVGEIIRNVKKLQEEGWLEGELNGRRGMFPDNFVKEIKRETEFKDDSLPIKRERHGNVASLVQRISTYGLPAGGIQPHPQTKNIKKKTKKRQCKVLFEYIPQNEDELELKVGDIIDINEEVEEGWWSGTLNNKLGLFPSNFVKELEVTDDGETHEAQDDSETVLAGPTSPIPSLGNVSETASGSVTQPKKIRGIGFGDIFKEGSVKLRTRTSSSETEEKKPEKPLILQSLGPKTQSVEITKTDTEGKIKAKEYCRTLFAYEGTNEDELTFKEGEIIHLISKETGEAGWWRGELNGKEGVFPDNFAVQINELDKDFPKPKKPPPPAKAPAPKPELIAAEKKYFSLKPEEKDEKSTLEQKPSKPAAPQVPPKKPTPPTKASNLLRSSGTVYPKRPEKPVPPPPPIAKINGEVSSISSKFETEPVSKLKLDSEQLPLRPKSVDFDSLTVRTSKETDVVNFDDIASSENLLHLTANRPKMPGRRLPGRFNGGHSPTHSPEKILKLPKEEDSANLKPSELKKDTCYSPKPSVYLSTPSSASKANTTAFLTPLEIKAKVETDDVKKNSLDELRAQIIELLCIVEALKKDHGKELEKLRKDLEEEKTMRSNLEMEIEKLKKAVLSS

B1: TKS4 peptide 188 (15-mer of the PepStar peptide microarray) (peptide, UniProt A1X283 749-763, looked up)
peptide: EAPQQRPVVPPRRPP
notes: contains the motif 755-PVVPPR-760; source: synthetic peptide printed on a glass slide; bought: JPT Peptide Technologies (PepStar microarray)
For the molecule B1, the binding result is given as “binds”.

B2: TKS4 peptide 189 (15-mer of the PepStar peptide microarray) (peptide, UniProt A1X283 753-767, looked up)
peptide: QRPVVPPRRPPPPKK
notes: as for B1
Take B2: the binding result is given as “binds”.
